One block for each molecule: values may come before it.
How the values were obtained:
[1] = test system: 293T^EGFRvIII/c-Luc cells; experiment: Luciferase knockdown by scFv-P-BAP guided polyplexes; type: cell-based; conditions: inhibitor added 4 h prior transfection
Experimental: As positive RNAi control, cells were transfected with siLuc3 using the transfection reagent Interferin®. For investigating the route of internalization, endocytose inhibitors 0.6 μg/ml filipin III and 6 μg/ml chlorpromazine (both Sigma Aldrich) were added 4 h prior transfection of cells.

[2] = test system: 293T-Blue^TLR3/PSCA reporter cells; experiment: NFkappaB activation, SEAP reporter, PSCA-positive cells; type: cell-based
Experimental: The target delivery of TLR3 agonist Riboxxol® to the endosomal compartment of PSCA-positive cells and the resulting NFkappaB activation and induction of apoptosis by the use of the BIC delivery system was investigated using 293T-Blue^TLR3/PSCA reporter cells. 50.000 293T-Blue^TLR3/PSCA cells in 200 μl HEKBlue detection medium were plated in 96 well plates and treated with increasing concentrations of BICs containing RIBOXXOL® and scFv(h-AM1)-BAP or were treated with BICs containing Riboxxol® and scFv(MR1.1)-BAP, which should not bind to the PSCA-positive target cells. The induced secretion of the reporter SEAP, or its enzymatic activity in HEK Blue medium was measured at 655 nm in an ELISA reader after 24 h. […] […] A plateau of activation is reached at a concentration of the anti-PSCA immunoconjugate at 25 nM. […] Apoptosis levels of treated cells were normalized to untreated 293T-Blue^TLR3/PSCA cells by subtracting basal apoptosis levels from induced apoptosis-levels in the treatment groups.

EGFRvIII = target: T1, EGFRvIII (Homo sapiens, UniProt P00533, DELINS30-297G); experiment: Flow cytometry binding of scFvs to 293T^EGFRvIII cells; conditions: 1 μg scFv
T1 construct: expressed in transfected cells; host or cells: 293T cells with ectopic EGFRvIII (293T^EGFRvIII)
Experimental: To investigate scFv(MR1.1)-P-BAP binding to EGFRvIII-293T target cells with ectopic expression of the cognate surface receptor, 2×10^5 cells were incubated with 1 μg of recombinant scFv and scFv-P-BAPs, respectively. The bound antibodies were detected either via their myc-epitope using anti-myc/FITC antibody or via their biotin residue using anti-biotin/PE antibody (1:10; Miltenyi Biotec, Bergisch Gladbach, Germany). Cells stained only with secondary antibody were included as a control. […] At least 10,000 stained cells were measured by flow cytometry (MACSQuant, Miltenyi Biotec, Bergisch Gladbach, Germany) and analyzed by FlowJo software version 7.6.5 (TreeStar Inc., Ashland, USA).

wild type EGFR = wild type EGFR (Homo sapiens, UniProt P00533); conditions: cited from earlier work
EGFRvIII neo-epitope = EGFRvIII neo-epitope (Homo sapiens, UniProt P00533, DELINS30-297G); conditions: cited from earlier work
tumors = conditions: in vivo; cited from earlier work
293T^EGFRvIII cells = experiment: EGFRvIII receptor internalization, FACS; type: cell-based; conditions: crosslinking with scFv plus anti-myc-antibodies, 2 h to 48 h
Experimental: (§1) For studies of EGFRvIII and PSCA internalization, 293T^EGFRvIII and 293T^PSCA cells, respectively, were carefully detached with Trypsin/EDTA solution (Sigma/Aldrich). After repeated washing in 1 mg/ml BSA/PBS, 2×10^5 cells were fed with fresh medium and plated in 96 round bottom wells. Crosslinking of receptors was accomplished by incubation with 1 μg parental scFv specific for the cognate receptor for 1 h at 4° C. followed by extensive washing with PBS and treatment with 0.5 μg of biotin-labelled anti-myc antibody (Miltenyi Biotech) for 10 min at 4° C., followed by extensive washing with PBS and feeding with fresh medium. To achieve a monovalent binding of receptors, the 293T^EGFRvIII and 293T^PSCA cells were incubated only with scFv(MR1.1) and scFv(AM1), respectively, for 1 h at 4° C., followed by extensive washing with PBS and feeding with fresh medium. EGFRvIII surface expression was monitored after incubation at 37° C. in a humidified CO2 incubator after 2 h, 4 h, 8 h, 24 h, and 48 h utilizing an anti-biotin-PE antibody (Miltenyi Biotech) for the crosslinked receptors and incubation of biotinylated anti-myc antibody for 10 min at 4° C. followed by anti-biotin-PE antibody staining for 10 min at 4° C., for cells with monovalent binding of receptors. All obtained data were analyzed by FlowJo software version 7.6.5 (TreeStar Inc., Ashland, USA).

avidin = avidin (Gallus gallus, UniProt P02701); experiment: Conjugation of biotinylated scFvs to avidin, Western blot; type: binding; conditions: molar ratios from 1:1 to 4:1
avidin, sequence (P02701 25-152): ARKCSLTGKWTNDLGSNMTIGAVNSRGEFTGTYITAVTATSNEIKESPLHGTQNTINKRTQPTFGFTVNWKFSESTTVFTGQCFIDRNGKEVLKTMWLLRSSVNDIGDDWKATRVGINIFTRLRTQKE
Experimental: Conjugation of recombinant biotinylated single chain antibodies was investigated in Western blot experiments. For this 10.7 pmol of recombinant scFv-P-BAP and scFv-BAP was incubated for 30 min at RT with […] as depicted in FIG. 11c for scFv(MR1.1)-P-BAP and FIG. 12 for scFv(MR1.1)-BAP and scFv(h-AM1)-BAP. The avidin/scFv-BAP complexes were subjected to non-reducing SDS-PAGE. After protein transfer onto a Westran PVDF membrane (Whatman GmbH, Dassel, Germany), proteins were detected by a monoclonal murine c-myc-specific antibody (1:5,000, Invitrogen, Carlsbad, USA) and a HRP-labeled rabbit anti-mouse secondary antibody (1:1,000; Dako, Glostrup, Denmark), and after stripping of the membranes by a HRP-conjugated biotin-specific antibody (1:8,000; Sigma-Aldrich, St. Louis, USA). Membranes were visualized and documented using the Luminata Classico Western HRP substrate (Merck Millipore, Darmstadt, Germany) and the imaging system LAS3000 (FujiFilm Europe, Düsseldorf, Germany).

293T^PSCA cells = experiment: PSCA receptor internalization, FACS; type: cell-based; conditions: crosslinking with scFv plus anti-myc-antibodies, 2 h to 48 h
Experimental: as §1

PSCA = target: T2, PSCA (Homo sapiens, UniProt O43653); experiment: Binding affinity (KD) by flow cytometry on 293T^PSCA cells; conditions: FIG. 9
T2 construct: expressed in transfected cells; host or cells: 293T^PSCA cells
T2 sequence (O43653 12-83): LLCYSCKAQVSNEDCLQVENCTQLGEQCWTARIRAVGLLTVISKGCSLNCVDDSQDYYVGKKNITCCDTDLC
Experimental: For determination of binding affinity, murine scFv(AM1) and the humanized scFv(h-AM1) were incubated in descending concentrations with 293T^PSCA cells. After detection with a secondary anti-myc-PE-antibody the MFIs were determined using a MACSQuant Cytometer (Miltenyi Biotech) and FlowJo software and the Kd values were calculated with the PRISM software program. FIG. 9 depicts the graphs for the KD value calculations.

Molecule: CCCCC[C@@H](O)[C@H]1C(=O)O[C@H](C)[C@@H](O)/C=C/C=C/C=C/C=C/C=C(\C)[C@@H](O)C[C@H](O)C[C@H](O)C[C@H](O)C[C@H](O)C[C@H](O)C[C@@H]1O [filipin III, reference compound]
effect of endocytosis inhibitor on delivery of EGFRvIII-specific polyplexes [1]: inhibited
effect on induction of the reporter SEAP by BICs ([2]; 0.3 μg/ml filipin III): slightly weakened induction

Molecule: CN(C)CCCN1c2ccccc2Sc2ccc(Cl)cc21 [chlorpromazine, reference compound]
inhibition of chlatrin-mediated endocytosis of BICs ([2]; 31 μg/ml of chlorpromazine): effectively inhibited

B2: scFv(AM1)-P-BAP: scFv(AM1) fused to PSTCD biotin acceptor peptide, SEQ ID NO: 1 (protein, listed as Mus musculus)
scFv: METDTLLLWVLLLWVPGSTGDAAQPARRARRTKLGTELGSQVKLQESGGGLVQPGGSLKLSCVASGFTFSSYTMSWVRRTPEKRLEWVAYIHNGGGHTYYPDTIKGRFTISRDNAKNTLFLEMSSLKSEDTAMYYCTRRMYYGNSHWYFDVWGAGTSVTVSSAKTTPPSVYGGGGSGGGGSGGGGSTNSDIVMTQSPSSLSASLGDRVTINCRTSQDISNYLNWYQLTPDGTVKLLIYYTLKLNSGVPSRFSGSGSGTDYSLTINNLEKEDFATYFCQQSKTLPWTFGGGTKLEIKRADAAPTVSGPKLSSKLKVTVNGTAYDVDVDVDKSHENPMGTILFGGGTGGAPAPAAGGAGAGKAGEGEIPAPLAGTVSKILVKEGDTVKAGQTVLVLEAMKMETEINAPTDGKVEKVLVKERDAVQGGQGLIKIGDLELIEGSSGPEQKLISEEDLNSAVDHHHHHH
binding to EGFRvIII-positive 293T^EGFRvIII cells (EGFRvIII): did not recognize

B3: scFv(MR1.1): EGFRvIII-specific single chain fragment variable from the literature [30, 31] (protein)
scFv: QVKLQQSGGGLVKPGASLKLSCVTSGFTFRKFGMSWVRQTSDKRLEWVASISTGGYNTYYSDNVKGRFTISRENAKNTLYLQMSSLKSEDTALYYCTRGYSPYSYAMDYWGQGTTVTVSSSGGGSGGGGSGGGGSDIELTQSPASLSVATGEKATIRCMTSTDIDDDMNWYQQKPGEPPKFLISEGNTLRPGVPSRFSSSGTGTDFVFTIENTLSEDVGDYYCLQSWNVPLTFGDGTKLEIT
modifications: left off: small tags and cut ends
cross-reaction with wild type EGFR (wild type EGFR): does not cross-react
affinity to EGFRvIII neo-epitope (EGFRvIII neo-epitope): high affinity
retention in tumors (tumors): excellent retention
EGFRvIII internalization (293T^EGFRvIII cells): time-dependent

Second part, led by results:

binding to EGFRvIII-positive 293T^EGFRvIII cells (EGFRvIII): did not recognize
B1: scFv(AM1): murine 7F5-derived single chain antibody fragment specific for prostate stem cell antigen (PSCA) (protein, listed as Mus musculus)
scFv: METDTLLLWVLLLWVPGSTGDAAQPARRARRTKLGTELGSQVKLQESGGGLVQPGGSLKLSCVASGFTFSSYTMSWVRRTPEKRLEWVAYIHNGGGHTYYPDTIKGRFTISRDNAKNTLFLEMSSLKSEDTAMYYCTRRMYYGNSHWYFDVWGAGTSVTVSSAKTTPPSVYGGGGSGGGGSGGGGSTNSDIVMTQSPSSLSASLGDRVTINCRTSQDISNYLNWYQLTPDGTVKLLIYYTLKLNSGVPSRFSGSGSGTDYSLTINNLEKEDFATYFCQQSKTLPWTFGGGTKLEIKRADAAPTVSGPKLSSKLKVTVNGTAYDVDVDVDKSHENPMGTILFGGGTGGAPAPAAGGAGAGKAGEGEIPAPLAGTVSKILVKEGDTVKAGQTVLVLEAMKMETEINAPTDGKVEKVLVKERDAVQGGQGLIKIGDLELIEGSSGPEQKLISEEDLNSAVDHHHHHH

conjugation to avidin (avidin): efficiently conjugated
binding to EGFRvIII-positive 293T^EGFRvIII cells (EGFRvIII): bind
B4: scFv(MR1.1)-P-BAP: scFv(MR1.1) fused to PSTCD biotin acceptor peptide, SEQ ID NO: 3 (protein)
scFv: METDTLLLWVLLLWVPGSTGDAAQPARRARRTKLGTELGSHMQVKLQQSGGGLVKPGASLKLSCVTSGFTFRKFGMSWVRQTSDKRLEWVASISTGGYNTYYSDNVKGRFTISRENAKNTLYLQMSSLKSEDTALYYCTRGYSPYSYAMDYWGQGTTVTVSSSGGGSGGGGSGGGGSDIELTQSPASLSVATGEKATIRCMTSTDIDDDMNWYQQKPGEPPKFLISEGNTLRPGVPSRFSSSGTGTDFVFTIENTLSEDVGDYYCLQSWNVPLTFGDGTKLEITKLSSKLKVTVNGTAYDVDVDVDKSHENPMGTILFGGGTGGAPAPAAGGAGAGKAGEGEIPAPLAGTVSKILVKEGDTVKAGQTVLVLEAMKMETEINAPTDGKVEKVLVKERDAVQGGQGLIKIGDLELIEGSSGPEQKLISEEDLNSAVDHHHHHH
modifications: Single chain antibody fragment

affinity to PSCA compared to parental murine scFv (PSCA): improved affinity
B5: scFv(h-AM1): humanized PSCA-specific scFv with c-Myc-Tag, Bio-Tag BAP and His6, SEQ ID NO: 2 (protein)
scFv: METDTLLLWVLLLWVPGSTGDAAQPARRARRTKLGTELGSEVQLLESGGGLVQPGGSLRLSCVASGFTFSSYTMSWVRQAPGKGLEWVSYIHNGGGHTYYADSVKGRFTISRDNSKNTLYLQMNSLRAEDTAVYYCTRRMYYGNSHWYFDVWGAGTRVTITSAKTTPPSVYGGGGSGGGGSGGGGSTNSDIQMTQSPSSLSASVGDRVTITCRTSQSISNYLNWYQQKPGKAPKLLIYYTLKLNSGVPSRFSGSGSGTDFTLTISSLQPEDFATYYCQQSKTLPWTFGGGTKLEIKRADAAPTVSGPEQKLISEEDLNSAVDMSGLNDIFEAQKIEWHEGAPSSHHHHHH
modifications: Humanized antibody
PSCA internalization (293T^PSCA cells): time-dependent
